Source: the supplement of paper PMC10065799, “High-throughput profiling of sequence recognition by tyrosine kinases and SH2 domains using bacterial peptide display” (eLife, 2023)

The sequences below were run on c-Src (assay: phosphorylation enrichment, bacterial display (enrichment ratio); higher = better substrate or ligand; peptides without Tyr show the background).
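For SH2 binding enrichment of the phosphorylated peptide, bacterial display in this document: peptide library displayed on the E. coli surface as eCPX fusions, selected cells deep-sequenced, score is each peptide's frequency after selection divided by its frequency in the input.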
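For phosphorylation enrichment, bacterial display in this document: 11-residue human phosphosite peptides and single-mutation variants displayed on the E. coli surface, counted by deep sequencing, each peptide's frequency after selection divided by its frequency in the unselected input library; frequency after pTyr selection over input frequency; kinase dosed for 20-30% of maximal phosphorylation in three min.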

| Sequence | phosphorylation enrichment |
| --- | --- |
| MEKEKYVSFIS [JMJD1C_Y596_YF] | 0.486 |
| ARSHIYTLASC [MEFV_Y741_F743L] | 2.07 |
| VFFGSYSCPFG [NKAP_Y104_R106C_YF] | 0.55 |
| LYEDRYLLGTS [ASS1_Y87] | 0.837 |
| FMCKVYSDRQP [FGFR1_Y280_P283R] | 0.634 |
| ELTTCYRKKCS [CCBE1_Y70_C75S] | 0.444 |
| GYEEAYSVSKK [PAFAH1B1_Y28_F31S] | 0.601 |
| SSQHRYSTPHT [RAF1_Y232_A237T] | 0.423 |
| VIKSSYQVAKA [CPT1B_Y534_E531K] | 0.458 |
| KDGNGYISVAE [CALM3_Y100_A103V] | 0.598 |
| GKANRYFSPNF [PTEN_Y336_D331G] | 0.528 |
| KGYCGYSYDDI [TMEM230_Y110_R108C] | 0.862 |
| SQSKGYRPKLY [SIPA1L3_Y1376_G1371S] | 0.408 |
| SVVVPYDPPEV [TP53_Y220_E221D] | 0.499 |
| FPKAHYHWLVL [APTX_Y214_R213H_YF] | 0.396 |
| TPGPNYCPGFN [USH2A_Y463_R464C_YF] | 0.944 |
| SGKSEYLLPVA [MYLK_Y611_R607G] | 0.453 |

| Sequence | phosphorylation enrichment |
| --- | --- |
| YHRQLYHKCTH [F12_Y58] | 0.481 |
| RRAKGYPINLY [ITGB2_Y125_D128N] | 0.7 |
| ILGRTHYVNHE [NEDD4_Y627_Y627H] | 0.482 |
| KMKGEYFRFLA [YWHAG_Y130_D129E_YF] | 2.76 |
| KNEVFYQCPDQ [FBXO3_Y223] | 0.985 |
| PFVFFYSFLLK [PTEN_Y178_R173P_YF] | 0.577 |
| IPPRRYFRSGV [STAMBP_Y36] | 0.61 |
| PLQSEYSSITT [ITGB4_Y1760] | 1.77 |
| PVQAAYQKVVA [HBB_Y131] | 0.471 |
| QEKKGYFEDRC [GLUL_Y336_R341C] | 0.613 |
| GGEAIYAAPFA [Abl_opt_1995] | 9.05 |
| LNCDRYSAGLL [PDE6A_Y275_V277A] | 0.448 |
| EEQKKYYNATK [SCN5A_Y1494_M1498T] | 0.363 |
| PEFINYHQHNS [BTK_Y361_L358F] | 1.03 |
| PLSGEYFTLQI [TP53_Y327_D324S] | 3.48 |
| HSGVSYFINLC [IGF2R_Y2024_N2020S_YF] | 0.439 |

Each sequence was assayed against Grb2 SH2 (UniProt P62993) (assay: SH2 binding enrichment of the phosphorylated peptide, bacterial display (enrichment ratio); higher = better substrate or ligand; peptides without Tyr show the background).

| Sequence | SH2 binding enrichment |
| --- | --- |
| MEKEKYVSFIS [JMJD1C_Y596_YF] | 0.711 |
| LYEDRYLLGTS [ASS1_Y87] | 0.82 |
| ELTTCYRKKCS [CCBE1_Y70_C75S] | 1.25 |
| GYEEAYSVSKK [PAFAH1B1_Y28_F31S] | 0.798 |
| SSQHRYSTPHT [RAF1_Y232_A237T] | 0.813 |
| KDGNGYISVAE [CALM3_Y100_A103V] | 0.685 |
| SQSKGYRPKLY [SIPA1L3_Y1376_G1371S] | 0.701 |
| SVVVPYDPPEV [TP53_Y220_E221D] | 0.684 |
| FPKAHYHWLVL [APTX_Y214_R213H_YF] | 1.86 |
| YHRQLYHKCTH [F12_Y58] | 1.34 |
| KNEVFYQCPDQ [FBXO3_Y223] | 0.783 |
| PFVFFYSFLLK [PTEN_Y178_R173P_YF] | 1.04 |
| QEKKGYFEDRC [GLUL_Y336_R341C] | 1.5 |
| EEQKKYYNATK [SCN5A_Y1494_M1498T] | 1.01 |
| HSGVSYFINLC [IGF2R_Y2024_N2020S_YF] | 0.651 |

Other lines, results leading:

| SH2 binding enrichment | Sequence |
| --- | --- |
| 0.965 | ARSHIYTLASC [MEFV_Y741_F743L] |
| 0.598 | VFFGSYSCPFG [NKAP_Y104_R106C_YF] |
| 0.771 | FMCKVYSDRQP [FGFR1_Y280_P283R] |
| 0.783 | VIKSSYQVAKA [CPT1B_Y534_E531K] |
| 0.967 | GKANRYFSPNF [PTEN_Y336_D331G] |
| 0.837 | KGYCGYSYDDI [TMEM230_Y110_R108C] |
| 0.987 | TPGPNYCPGFN [USH2A_Y463_R464C_YF] |
| 0.801 | SGKSEYLLPVA [MYLK_Y611_R607G] |
| 0.764 | RRAKGYPINLY [ITGB2_Y125_D128N] |
| 5.66 | ILGRTHYVNHE [NEDD4_Y627_Y627H] |
| 1.63 | KMKGEYFRFLA [YWHAG_Y130_D129E_YF] |
| 0.644 | IPPRRYFRSGV [STAMBP_Y36] |
| 0.696 | PLQSEYSSITT [ITGB4_Y1760] |
| 0.795 | PVQAAYQKVVA [HBB_Y131] |
| 0.778 | GGEAIYAAPFA [Abl_opt_1995] |
| 0.755 | LNCDRYSAGLL [PDE6A_Y275_V277A] |
| 0.659 | PEFINYHQHNS [BTK_Y361_L358F] |
| 0.793 | PLSGEYFTLQI [TP53_Y327_D324S] |

What follows are sequences tested against SHP2-C SH2 in the same assay as above.

| Sequence | SH2 binding enrichment |
| --- | --- |
| MEKEKYVSFIS [JMJD1C_Y596_YF] | 0.831 |
| LYEDRYLLGTS [ASS1_Y87] | 1.05 |
| ELTTCYRKKCS [CCBE1_Y70_C75S] | 0.741 |
| GYEEAYSVSKK [PAFAH1B1_Y28_F31S] | 0.796 |
| SSQHRYSTPHT [RAF1_Y232_A237T] | 0.876 |
| KDGNGYISVAE [CALM3_Y100_A103V] | 0.746 |
| SQSKGYRPKLY [SIPA1L3_Y1376_G1371S] | 0.662 |
| SVVVPYDPPEV [TP53_Y220_E221D] | 0.827 |
| FPKAHYHWLVL [APTX_Y214_R213H_YF] | 1.7 |
| YHRQLYHKCTH [F12_Y58] | 1.22 |
| KNEVFYQCPDQ [FBXO3_Y223] | 0.523 |
| PFVFFYSFLLK [PTEN_Y178_R173P_YF] | 0.913 |
| QEKKGYFEDRC [GLUL_Y336_R341C] | 0.948 |
| EEQKKYYNATK [SCN5A_Y1494_M1498T] | 0.482 |
| HSGVSYFINLC [IGF2R_Y2024_N2020S_YF] | 0.491 |

The next lines start with the values.

| SH2 binding enrichment | Sequence |
| --- | --- |
| 0.693 | ARSHIYTLASC [MEFV_Y741_F743L] |
| 0.552 | VFFGSYSCPFG [NKAP_Y104_R106C_YF] |
| 0.666 | FMCKVYSDRQP [FGFR1_Y280_P283R] |
| 0.503 | VIKSSYQVAKA [CPT1B_Y534_E531K] |
| 1.06 | GKANRYFSPNF [PTEN_Y336_D331G] |
| 0.993 | KGYCGYSYDDI [TMEM230_Y110_R108C] |
| 0.645 | TPGPNYCPGFN [USH2A_Y463_R464C_YF] |
| 0.465 | SGKSEYLLPVA [MYLK_Y611_R607G] |
| 0.55 | RRAKGYPINLY [ITGB2_Y125_D128N] |
| 1.44 | ILGRTHYVNHE [NEDD4_Y627_Y627H] |
| 1.3 | KMKGEYFRFLA [YWHAG_Y130_D129E_YF] |
| 0.526 | IPPRRYFRSGV [STAMBP_Y36] |
| 0.57 | PLQSEYSSITT [ITGB4_Y1760] |
| 0.516 | PVQAAYQKVVA [HBB_Y131] |
| 0.416 | GGEAIYAAPFA [Abl_opt_1995] |
| 0.595 | LNCDRYSAGLL [PDE6A_Y275_V277A] |
| 0.659 | PEFINYHQHNS [BTK_Y361_L358F] |
| 0.679 | PLSGEYFTLQI [TP53_Y327_D324S] |

These sequences were tested against c-Src SH2 in the same assay as above.

| Sequence | SH2 binding enrichment |
| --- | --- |
| MEKEKYVSFIS [JMJD1C_Y596_YF] | 0.785 |
| LYEDRYLLGTS [ASS1_Y87] | 0.546 |
| ELTTCYRKKCS [CCBE1_Y70_C75S] | 1.04 |
| GYEEAYSVSKK [PAFAH1B1_Y28_F31S] | 1.85 |
| SSQHRYSTPHT [RAF1_Y232_A237T] | 3.04 |
| KDGNGYISVAE [CALM3_Y100_A103V] | 2.5 |
| SQSKGYRPKLY [SIPA1L3_Y1376_G1371S] | 0.447 |
| SVVVPYDPPEV [TP53_Y220_E221D] | 0.855 |
| FPKAHYHWLVL [APTX_Y214_R213H_YF] | 1.54 |
| YHRQLYHKCTH [F12_Y58] | 1.44 |
| KNEVFYQCPDQ [FBXO3_Y223] | 0.526 |
| PFVFFYSFLLK [PTEN_Y178_R173P_YF] | 0.496 |
| QEKKGYFEDRC [GLUL_Y336_R341C] | 0.589 |
| EEQKKYYNATK [SCN5A_Y1494_M1498T] | 0.559 |
| HSGVSYFINLC [IGF2R_Y2024_N2020S_YF] | 0.461 |

Next, values leading:

| SH2 binding enrichment | Sequence |
| --- | --- |
| 4.4 | ARSHIYTLASC [MEFV_Y741_F743L] |
| 0.476 | VFFGSYSCPFG [NKAP_Y104_R106C_YF] |
| 0.527 | FMCKVYSDRQP [FGFR1_Y280_P283R] |
| 0.41 | VIKSSYQVAKA [CPT1B_Y534_E531K] |
| 0.525 | GKANRYFSPNF [PTEN_Y336_D331G] |
| 7.21 | KGYCGYSYDDI [TMEM230_Y110_R108C] |
| 0.632 | TPGPNYCPGFN [USH2A_Y463_R464C_YF] |
| 0.383 | SGKSEYLLPVA [MYLK_Y611_R607G] |
| 0.484 | RRAKGYPINLY [ITGB2_Y125_D128N] |
| 0.767 | ILGRTHYVNHE [NEDD4_Y627_Y627H] |
| 1.24 | KMKGEYFRFLA [YWHAG_Y130_D129E_YF] |
| 0.471 | IPPRRYFRSGV [STAMBP_Y36] |
| 0.952 | PLQSEYSSITT [ITGB4_Y1760] |
| 0.706 | PVQAAYQKVVA [HBB_Y131] |
| 0.486 | GGEAIYAAPFA [Abl_opt_1995] |
| 0.419 | LNCDRYSAGLL [PDE6A_Y275_V277A] |
| 0.608 | PEFINYHQHNS [BTK_Y361_L358F] |
| 0.432 | PLSGEYFTLQI [TP53_Y327_D324S] |
